The target of this data set is GST-Bsx (zebrafish) (UniProt Q6R3Q6). The data set is described as follows: EMSA. To be noted: EMSA: DIG Gel Shift Kit (Roche) per manufacturer, 2.0 pmol GST-Bsx with 32 fmol DIG-oligonucleotide or 8 fmol DIG-147bp probe; buffer, pH and temperature not ….
Chain of GST-Bsx (zebrafish) (Q6R3Q6 whole entry): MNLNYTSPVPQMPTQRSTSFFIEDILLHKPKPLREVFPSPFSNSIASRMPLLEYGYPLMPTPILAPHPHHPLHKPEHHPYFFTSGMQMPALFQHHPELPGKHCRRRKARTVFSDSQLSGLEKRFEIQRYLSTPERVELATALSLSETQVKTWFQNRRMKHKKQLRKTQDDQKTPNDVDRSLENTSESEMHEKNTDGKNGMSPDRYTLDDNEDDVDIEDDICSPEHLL

In the case of “TCTCTGGATTATCCCCCTGTCTGACCCCAATCTGGCCACTCACTCCTGTAATCTGCCTAATCTGGACTCATGGGGTTCACATAAGAGCGCAGCGCCGGCTCTCCGGGCTTCATCTGCGGAGGTGTGCCGATCGTCCACTTCTCCATC (double strand) [wt147bp]”, the binding entry is listed as “binds”.

Turning to “GATGGAGAAGTGGACGATCGGCACACCTCCGCAGATGAAGCCCGGAGAGCCGGCGCTGCGCTCTTATGTGAACCCCATGAGTCCAGATTAGGCATCGTACAGGAGTGAGTGGCCAGATTGGGGTCAGACAGGGGGATAATCCAGAGA (double strand) [147bp P3 mutant]”, the binding result was “binds more weakly”. In the case of “GATGGAGAAGTGGACGATCGGCACACCTCCGCAGATGAAGCCCGGAGAGCCGGCGCTGCGCTCTTATGTGAACCCCATGAGTCCATCGTAGGCAGATTACAGGAGTGAGTGGCCAGATTGGGGTCAGACAGGGGGATAATCCAGAGA (double strand) [147bp P4 mutant]” it was “binds”.
